Reference: article PMC3145769, “Cyclin A2 Mutagenesis Analysis: A New Insight into CDK Activation and Cellular Localization Requirements” (PLoS ONE, 2011)

How the values were obtained:
Test in all cases: co-IP; anti-Flag M2 affinity gel on extracts of NIH3T3 cells transfected with 3xFlag Cyclin A2 alleles; endogenous partners detected by Western blot; densitometry (ImageQuantTL) normalised to immunoprecipitated Cyclin A2, percent of WT; repeated 5 times
Conditions in all cases: partners not purified
[1] = biological target: T1, Cyclin A2 WT, C-terminally fused to 3 Flag tags (mouse, UniProt P51943 1-422)
T1 construct: Cyclin A2, mouse; cDNA obtained from NIH3T3 cells by RT-PCR; Same construct transfected into mouse NIH3T3 (assay a1) and human HEK 293 (assay a2); also called WT Cyclin A2 allele; Flag tagged WT Cyclin A2; source: NIH3T3 or HEK 293 cells, transfected, in cell extracts; not shown: 3xFlag, C-terminal, kept
T1 sequence (P51943 whole entry, the tested form may be a part): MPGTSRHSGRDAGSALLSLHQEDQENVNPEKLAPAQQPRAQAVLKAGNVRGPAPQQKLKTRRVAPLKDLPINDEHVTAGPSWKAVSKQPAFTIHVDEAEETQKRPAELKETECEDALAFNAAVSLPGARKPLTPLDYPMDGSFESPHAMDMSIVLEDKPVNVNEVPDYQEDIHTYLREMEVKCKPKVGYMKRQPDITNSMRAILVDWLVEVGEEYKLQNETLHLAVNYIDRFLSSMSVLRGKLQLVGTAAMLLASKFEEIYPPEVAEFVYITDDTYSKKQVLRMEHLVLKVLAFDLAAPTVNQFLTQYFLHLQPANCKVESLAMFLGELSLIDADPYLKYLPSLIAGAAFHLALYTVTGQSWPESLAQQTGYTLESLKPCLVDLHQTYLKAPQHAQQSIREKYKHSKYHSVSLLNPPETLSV

[2] = biological target: T2, Cyclin A2 K256A, C-terminally fused to 3 Flag tags (mouse, UniProt P51943 1-422, K256A)
T2 construct: Cyclin A2, mouse; cDNA obtained from NIH3T3 cells by RT-PCR; source: NIH3T3 cells, transfected, in cell extracts; not shown: 3xFlag, C-terminal, kept
T2 sequence (P51943 whole entry K256A, the tested form may be a part): as the sequence (P51943 whole entry, the tested form may be a part) above, with K256A counted along it

[3] = biological target: T3, Cyclin A2 L282R, C-terminally fused to 3 Flag tags (mouse, UniProt P51943 1-422, L282R)
T3 construct: Cyclin A2, mouse; cDNA obtained from NIH3T3 cells by RT-PCR; source: NIH3T3 cells, transfected, in cell extracts; not shown: 3xFlag, C-terminal, kept
T3 sequence (P51943 whole entry L282R, the tested form may be a part): as the sequence (P51943 whole entry, the tested form may be a part) above, with L282R counted along it

[4] = biological target: T4, Cyclin A2 E285A, C-terminally fused to 3 Flag tags (mouse, UniProt P51943 1-422, E285A)
T4 construct: Cyclin A2, mouse; cDNA obtained from NIH3T3 cells by RT-PCR; source: NIH3T3 cells, transfected, in cell extracts; not shown: 3xFlag, C-terminal, kept
T4 sequence (P51943 whole entry E285A, the tested form may be a part): as the sequence (P51943 whole entry, the tested form may be a part) above, with E285A counted along it

[5] = biological target: T5, Cyclin A2 D171A, C-terminally fused to 3 Flag tags (mouse, UniProt P51943 1-422, D171A)
T5 construct: Cyclin A2, mouse; cDNA obtained from NIH3T3 cells by RT-PCR; source: NIH3T3 or HEK 293 cells, transfected, in cell extracts; not shown: 3xFlag, C-terminal, kept
T5 sequence (P51943 whole entry D171A, the tested form may be a part): as the sequence (P51943 whole entry, the tested form may be a part) above, with D171A counted along it

[6] = biological target: T6, Cyclin A2 M200A, C-terminally fused to 3 Flag tags (mouse, UniProt P51943 1-422, M200A)
T6 construct: Cyclin A2, mouse; cDNA obtained from NIH3T3 cells by RT-PCR; source: NIH3T3 or HEK 293 cells, transfected, in cell extracts; not shown: 3xFlag, C-terminal, kept
T6 sequence (P51943 whole entry M200A, the tested form may be a part): as the sequence (P51943 whole entry, the tested form may be a part) above, with M200A counted along it

[7] = biological target: T7, Cyclin A2 L204A, C-terminally fused to 3 Flag tags (mouse, UniProt P51943 1-422, L204A)
T7 construct: Cyclin A2, mouse; cDNA obtained from NIH3T3 cells by RT-PCR; source: NIH3T3 or HEK 293 cells, transfected, in cell extracts; not shown: 3xFlag, C-terminal, kept
T7 sequence (P51943 whole entry L204A, the tested form may be a part): as the sequence (P51943 whole entry, the tested form may be a part) above, with L204A counted along it

[8] = biological target: T8, Cyclin A2 E210Q, C-terminally fused to 3 Flag tags (mouse, UniProt P51943 1-422, E210Q)
T8 construct: Cyclin A2, mouse; cDNA obtained from NIH3T3 cells by RT-PCR; source: NIH3T3 cells, transfected, in cell extracts; not shown: 3xFlag, C-terminal, kept
T8 sequence (P51943 whole entry E210Q, the tested form may be a part): as the sequence (P51943 whole entry, the tested form may be a part) above, with E210Q counted along it

[9] = biological target: T9, Cyclin A2 W207A, C-terminally fused to 3 Flag tags (mouse, UniProt P51943 1-422, W207A)
T9 construct: Cyclin A2, mouse; cDNA obtained from NIH3T3 cells by RT-PCR; source: NIH3T3 or HEK 293 cells, transfected, in cell extracts; not shown: 3xFlag, C-terminal, kept
T9 sequence (P51943 whole entry W207A, the tested form may be a part): as the sequence (P51943 whole entry, the tested form may be a part) above, with W207A counted along it

[10] = biological target: T10, Cyclin A2 E180A, C-terminally fused to 3 Flag tags (mouse, UniProt P51943 1-422, E180A)
T10 construct: Cyclin A2, mouse; cDNA obtained from NIH3T3 cells by RT-PCR; source: NIH3T3 cells, transfected, in cell extracts; not shown: 3xFlag, C-terminal, kept
T10 sequence (P51943 whole entry E180A, the tested form may be a part): as the sequence (P51943 whole entry, the tested form may be a part) above, with E180A counted along it

[11] = biological target: T11, Cyclin A2 Double (W207L, E210Q), C-terminally fused to 3 Flag tags (mouse, UniProt P51943 1-422, W207L | E210Q)
T11 construct: Cyclin A2, mouse; cDNA obtained from NIH3T3 cells by RT-PCR; also called Double mutant; source: NIH3T3 cells, transfected, in cell extracts; not shown: 3xFlag, C-terminal, kept
T11 sequence (P51943 whole entry W207L/E210Q, the tested form may be a part): as the sequence (P51943 whole entry, the tested form may be a part) above, with W207L, E210Q counted along it

[12] = biological target: T12, Cyclin A2 Triple (M200A, L204A, W207A), C-terminally fused to 3 Flag tags (mouse, UniProt P51943 1-422, M200A | L204A | W207A)
T12 construct: Cyclin A2, mouse; cDNA obtained from NIH3T3 cells by RT-PCR; also called Triple mutant; source: NIH3T3 or HEK 293 cells, transfected, in cell extracts; not shown: 3xFlag, C-terminal, kept
T12 sequence (P51943 whole entry M200A/L204A/W207A, the tested form may be a part): as the sequence (P51943 whole entry, the tested form may be a part) above, with M200A, L204A, W207A counted along it

Binder | percent co-precipitated relative to WT [1] [%] | percent co-precipitated relative to WT [2] [%] | percent co-precipitated relative to WT [3] [%] | percent co-precipitated relative to WT [4] [%] | percent co-precipitated relative to WT [5] [%] | percent co-precipitated relative to WT [6] [%] | percent co-precipitated relative to WT [7] [%] | percent co-precipitated relative to WT [8] [%] | percent co-precipitated relative to WT [9] [%] | percent co-precipitated relative to WT [10] [%] | percent co-precipitated relative to WT [11] [%] | percent co-precipitated relative to WT [12] [%]
p27 (endogenous, NIH3T3) (natural protein, mouse (endogenous in NIH3T3), UniProt P46414 1-197, looked up, p27, endogenous protein of mouse NIH3T3 cells, detected by Western blot; source: endogenous, NIH3T3 cell extract) MSNVRVSNGSPSLERMDARQAEHPKPSACRNLFGPVNHEELTRDLEKHCRDMEEASQRKWNFDFQNHKPLEGRYEWQEVERGSLPEFYYRPPRPPKSACKVLAQESQDVSGSRQAVPLIGSQANSEDRHLVDQMPDSSDNPAGLAEQCPGMRKRPAAEDSSSQNKRANRTEENVSDGSPNAGTVEQTPKKPGLRRQT | 100 | 19.3 | 44.5 | 36.7 | 100 | 69.2 | 15.2 | 95.7 |  |  |  | 
p107 (endogenous, NIH3T3) (natural protein, mouse (endogenous in NIH3T3), UniProt Q64701 1-1063, looked up, p107, endogenous protein of mouse NIH3T3 cells, detected by Western blot; source: endogenous, NIH3T3 cell extract) MFEDEPHAEGAAAVAAAREALQALCQELNLDEGSAAEALDDFTAIRGNYSLEGEVIHWLACSLYVACRKSIIPTVGKGVMEGNCVSLTRILRSAKLSLIQFFSKMKKWMDMSNLPQEFRERIERLERNFEVSTVIFKKFEPIFLDIFQNPYEEPPKLPRSRKQRRIPCSVKDLFNFCWTLFVYTKGNFRMIGDDLVNSYHLLLCCLDLIFANAIMCPNRRDLLNPSFKGLPSDFHAPDFKAAEEPPCIIAVLCDLHDGLLVEAKGIKEHYFKPYISKLFDKKILKGECLLDLSSFTDNSKAVNKEYEEYVLTVGDFDERIFLGADAEEEIGTPRKFTADTPFGKLTSQASVECNLQQHFEKKRSFAPSTPLTGRRYLQEKEAVTTPVASATQSVSRLQSIVAGLKSAPSEQLLNIFESCMRNPMGNIIKIVKGIGETFCQHYTQSTDKQPGSHIDFAVNRLKLAEILYYKILETIMVQETRRLHGMDMSVLLEQDIFHKSLMACCLEIVLFAYSSPRTFPWIIEVLDLQPFYFYKVIEVVIRSEEGLSRDMVKHLNSIEEQILESLAWTNNSALWEALHASANRVPSCEEVIFPNNFEIGNGGNVQGHLPMMPMSPIIHPRVKEVRTDSGSLRQDMQPLSPISVHERYSSPAAGSAKRRLFGDDPPKDTLMDKIMAEGTKLKIAPSSVTAESLSISPGQALLTMATTTVTGTTGRKVTVPLHGIANDAGEITLVPISMNPTQESTAESPVSLTAQSLIGTSPKQTHLTKAQDAHLTGVSKPKRTGSLALFYRKVYHLASVRLRDLCLKLDVSNELRRKIWTCFEFTLVHCPDLMKDRHLDQLLLCAFYIMAKVTKEERTFQEIMKSYRNQPQANSHVYRSVLLKSIPGGVVVYNGDCEMTDGDIEDATKTPNCSSEPVKEERGDLIKFYNTVYVGRVKSFALKYDLSNQDHIMDAPPLSPFPHIKQQPGSPRRISQQHSLYVSPHKNGAGLTPRSALLYKFNGSPSKSLKDINNMIRQGEQKTKKRVIAISGDADSPAKRLCQENDDVLLKRLQDVVSERANH | 100 | 17 | 58.6 | 8.6 | 100 | 79.2 | 65.6 | 70 |  | 19.6 |  | 

Now from value to binder:

percent co-precipitated relative to WT [1] [%] | percent co-precipitated relative to WT [2] [%] | percent co-precipitated relative to WT [3] [%] | percent co-precipitated relative to WT [4] [%] | percent co-precipitated relative to WT [5] [%] | percent co-precipitated relative to WT [6] [%] | percent co-precipitated relative to WT [7] [%] | percent co-precipitated relative to WT [8] [%] | percent co-precipitated relative to WT [9] [%] | percent co-precipitated relative to WT [10] [%] | percent co-precipitated relative to WT [11] [%] | percent co-precipitated relative to WT [12] [%] | Binder
100 | 41.9 | 65.7 | 78.2 | 100 | 100 | 100 | 60.2 | 79.2 | 11.7 | 8.2 |  | p21 (endogenous, NIH3T3) (natural protein, mouse (endogenous in NIH3T3), UniProt P39689 1-159, looked up, p21, endogenous protein of mouse NIH3T3 cells, detected by Western blot; source: endogenous, NIH3T3 cell extract) MSNPGDVRPVPHRSKVCRCLFGPVDSEQLRRDCDALMAGCLQEARERWNFDFVTETPLEGNFVWERVRSLGLPKVYLSPGSRSRDDLGGDKRPSTSSALLQGPAPEDHVALSLSCTLVSERPEDSPGGPGTSQGRKRRQTSLTDFYHSKRRLVFCKRKP
100 | 3.8 | 19.8 | 4.7 | 100 | 72.8 | 57.2 | 45.3 | 15.3 |  | 9.2 | 0.4 | CDK1 (endogenous, NIH3T3) (enzyme, CDK1, endogenous protein of mouse NIH3T3 cells, detected by Western blot; source: endogenous, NIH3T3 cell extract) not shown
